# Assays:
# N. denitrificans DsyB [1] = target: T1, N. denitrificans DsyB (Nisaea denitrificans, UniProt A0A979HMS8); assay: X-ray crystal structure of complex; native MS; format: binding
# T1 construct: full length, 337 residues (Met1-Glu337), C-terminal His-tag (pET22b), E. coli BL21(DE3); initiator Met mostly cleaved; monomer 37,215 Da predicted; homodimer in solution
# N. denitrificans DsyB [2] = target: T1, N. denitrificans DsyB; assay: X-ray crystal structure of complex; format: binding; conditions: DsyB-SAH-MTHB complex; SAM site in C-domain; 1 mM SAH and 1 mM DL-MTHB
# [3] = target: Nisaea denitrificans DsyB (Nisaea denitrificans DR41_21 (DSM 18348)); assay: SEC; gel filtration of DsyB in solution; conalbumin (75,000 Da) and ovalbumin (43,000 Da) as markers
# [4] = target: Nisaea denitrificans DsyB (Nisaea denitrificans DR41_21 (DSM 18348)); assay: native MS; nondenaturing MS of as-isolated DsyB exchanged into 250 mM ammonium acetate, pH 8.0; dimer region also seen with 25 equivalents of SAM
# [5] = substrate: C[S+](CC[C@H](N)C(=O)O)C[C@H]1O[C@@H](n2cnc3c(N)ncnc32)[C@H](O)[C@@H]1O; assay: cells, lysate or membranes named; conditions: 1 mM DL-MTHB, 0-2 mM SAM, 1.97 µM enzyme activated with heat-killed L. aggregata dsyB- lysate fractions, 50 mM Tris-HCl, 100 mM NaCl, pH 8.0, 28 °C
# [6] = substrate: CSCCC(O)C(=O)O; assay: GC of DMS released from product by alkali; nonlinear fit; format: biochemical, Nisaea denitrificans; conditions: 1 mM SAM, 1.97 µM enzyme activated with heat-killed L. aggregata dsyB- lysate fractions, racemic substrate 0-2 mM, 50 mM Tris-HCl, 100 mM NaCl, pH 8.0, 28 °C
molecule,measurement,setting,value
CSCCC(O)C(=O)O (racemic) [MTHB],X-ray crystal structure of complex; native MS,"N. denitrificans DsyB [1]; DsyB-SAH-MTHB complex, poor MTHB density, >6 Å from SAH, presumed initial binding site, 1 mM DL-MTHB",the MTHB cosubstrate molecule is located between the C‐domain and the N‐domain
Nc1ncnc2c1ncn2[C@@H]1O[C@H](CSCC[C@H](N)C(=O)O)[C@@H](O)[C@H]1O [SAH],X-ray crystal structure of complex,N. denitrificans DsyB [2],we solved the crystal structures of complexes of DsyB with SAM and with SAH‐MTHB
C[S+](CC[C@H](N)C(=O)O)C[C@H]1O[C@@H](n2cnc3c(N)ncnc32)[C@H](O)[C@@H]1O (stereo partly shown) [SAM],X-ray crystal structure of complex; native MS,"N. denitrificans DsyB [1]; DsyB-SAM complex, SAM bound in chains A-C, not D, 1 mM SAM","three monomers (Chain A, B, and C) of the asymmetric unit contained SAM molecules"
Nisaea denitrificans DsyB (enzyme),stoichiometry N,[3],2
same,stoichiometry N,[4],2
"N. denitrificans DsyB (Nisaea denitrificans DSM 18348) (protein, full length, 337 residues (Met1-Glu337), C-terminal His-tag (pET22b), E. coli BL21(DE3); initiator Met mostly cleaved; monomer 37,215 Da predicted; homodimer in solution) MTLLTNAEEISDIAFGFMGSKALFAALHHGVFTCLADGPLSVEEMAAATGLHPDRVQTLLTALASLGVVSAVEGRFANSPAAESFLVKGAKYDFGDYLRLQVDRQMYGLLDQIEDAIANNLPDDATSSYADWFSDPEQAKLYSNSQHAGSLGPARGLAKLIDLSGGKKLLDVGGGTGAFAITLCKAFADLAATIVDFPNVAALGKGYVEKAGLSDRIEYVIGDALRTEWPREQDAILMSYLFSGVAGDEHDSLLKRAYDHLVPGGRLLIHDFVVTADRTGPKLAALWQLQHTAFTPEARSLDDEWLAEQLKKTGFTDVKVGPMIPGMTMLAEAVRPE",Km,[5],160 ± 2 µM
same,Km,[6],140 ± 20 µM

# — article PMC10989797, “Mechanistic insights into the key marine dimethylsulfoniopropionate synthesis enzyme DsyB/DSYB” (mLife, 2022)
